According to patent publication US20040265295A1 (WISCONSIN ALUMNI RESEARCH FOUNDATION, published 2004):
Ends that are not written are not given here.

Experiments:
[1] = molecular target: T1, GST-talin head Lys^357->Gln mutant (human, UniProt Q9Y490 1-435); assay: GST pull-down
T1 construct: Talin head mutant in pET42; also called mutant GST-talin; not shown: GST (and further tags) of the pET42 vector
Description: (§1) Purified GST-talin head proteins were incubated with PIPKIγ661 tails or β1-integrin tail, together with Glutathione SEPHAROSE™ 4 Fast Flow (Amersham Biosciences, Piscataway, N.J.), in Buffer B (PBS, 0.2% NP-40, 2 mM DTT) at 4° C. for 4 hours. The beads were washed three times with Buffer B and analyzed by western blot. For competition assays, GST-talin head proteins were incubated with peptides or competing proteins for 2 hours, then the binding proteins were added and the mixtures were incubated for another 4 hours.

[2] = molecular target: T2, GST-talin head Arg^358->Gln mutant (human, UniProt Q9Y490 1-435); assay: GST pull-down
T2 construct: Talin head mutant in pET42; also called mutant GST-talin; not shown: GST (and further tags) of the pET42 vector
Description: as §1

T1 sequence (Q9Y490 other isoform, or with tags, fused parts or gaps mutant): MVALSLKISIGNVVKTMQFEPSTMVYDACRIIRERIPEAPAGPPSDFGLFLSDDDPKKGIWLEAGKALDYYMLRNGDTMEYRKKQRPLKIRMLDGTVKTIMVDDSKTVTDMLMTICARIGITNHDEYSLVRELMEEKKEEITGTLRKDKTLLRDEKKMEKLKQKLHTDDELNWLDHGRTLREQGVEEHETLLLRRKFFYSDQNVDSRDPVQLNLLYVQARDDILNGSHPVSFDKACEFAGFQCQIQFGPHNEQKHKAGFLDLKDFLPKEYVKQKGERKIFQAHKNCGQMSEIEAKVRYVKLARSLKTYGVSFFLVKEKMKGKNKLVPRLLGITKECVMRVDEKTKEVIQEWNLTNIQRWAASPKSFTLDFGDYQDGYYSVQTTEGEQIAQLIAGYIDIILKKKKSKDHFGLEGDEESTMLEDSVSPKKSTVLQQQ
T2 sequence (Q9Y490 other isoform, or with tags, fused parts or gaps mutant): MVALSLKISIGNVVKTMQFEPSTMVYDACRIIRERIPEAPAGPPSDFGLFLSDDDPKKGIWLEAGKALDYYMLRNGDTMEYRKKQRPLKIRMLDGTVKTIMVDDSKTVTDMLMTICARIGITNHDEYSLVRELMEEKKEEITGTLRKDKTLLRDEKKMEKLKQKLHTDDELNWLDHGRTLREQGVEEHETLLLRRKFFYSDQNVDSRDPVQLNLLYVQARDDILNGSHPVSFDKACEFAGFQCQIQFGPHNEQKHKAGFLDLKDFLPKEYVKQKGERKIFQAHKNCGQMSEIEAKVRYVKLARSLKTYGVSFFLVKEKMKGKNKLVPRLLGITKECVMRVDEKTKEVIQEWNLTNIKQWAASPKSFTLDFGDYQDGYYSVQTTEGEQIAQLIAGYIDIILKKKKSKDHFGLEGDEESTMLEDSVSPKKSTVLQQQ

B1: His-tagged mouse β1-integrin tail (receptor, UniProt P09055 752-798, looked up)
chain: KLLMIIHDRREFAKFEKEKMNAKWDTGENPIYKSAVTTVVNPKYEGK
modifications: not fully specified (N-terminus); also: N-terminal His tag of pET28 vector, sequence not given here
notes: domain: tail; also called His-β1-integrin tail; His-β-integrin; not shown: His tag of the pET28 vector
B1: no binding [1]; no binding [2].
